According to US20030211141A1:

Molecular target: integrin α7β1 on C2C12 murine myoblasts (murine) (UniProt Q61738)
Assay: cell-based or functional assay

Substance: human recombinant βIG-H3 (Transforming Growth Factor-β Induced Gene-Human Clone 3 protein), expressed in CHO cells and purified (from UniProt Q15582 1-683) (ligand)
- C2C12 skeletal muscle cell attachment to a βIG-H3 substratum after function-perturbing anti-α7 antibody (% reduction of attachment): 80
